Results taken from patent publication US5871954A, “Fatty acid analog enzyme substrates” (Washington University, priority 1993, dated 1999).

B1: yeast NMT (Saccharomyces cerevisiae S288C) (protein)
chain: MSEEDKAKKLENLLKLLQLNNDDTSKFTQEQKKAMKDHKFWRTQPVKDFDEKVVEEGPIDKPKTPEDISDKPLPLLSSFEWCSIDVDNKKQLEDVFVLLNENYVEDRDAGFRFNYTKEFFNWALKSPGWKKDWHIGVRVKETQKLVAFISAIPVTLGVRGKQVPSVEINFLCVHKQLRSKRLTPVLIKEITRRVNKCDIWHALYTAGIVLPAPVSTCRYTHRPLNWKKLYEVDFTGLPDGHTEEDMIAENALPAKTKTAGLRKLKKEDIDQVFELFKRYQSRFELIQIFTKEEFEHNFIGEESLPLDKQVIFSYVVEQPDGKITDFFSFYSLPFTILNNTKYKDLGIGYLYYYATDADFQFKDRFDPKATKALKTRLCELIYDACILAKNANMDVFNALTSQDNTLFLDDLKFGPGDGFLNFYLFNYRAKPITGGLNPDNSNDIKRRSNVGVVML
notes: 11,000-fold purified preparation of yeast NMT; from tissue; host or cells: yeast

How the values were obtained:
[1] = 2-octanol/water partition; format: physicochemical
Procedure: For these Examples, each analog synthesized is characterized by ^1 H and 13C NMR as well as mass spectroscopy. The analogs are then characterized kinetically as NMT substrates. Briefly, fatty acid analogs are converted to their CoA esters with Pseudomonas CoA ligase and incubated with the iodinated peptide GNAAS[^125 I]YRR and a source of NMT. […] The radiolabelled peptide is then used at concentrations which will lead to 50% enzyme saturation (i.e., at its Km) for the determination of fatty acid analog kinetic characteristics. Representative analogs with sulfur or oxygen in the backbone of the fatty acid chain serve as good substrates for NMT in vitro and will compete for incorporation of ^3 H labelled myri-state into yeast proteins in vivo. In addition, these analogs differ markedly in hydrophobicity from myri-state as measured both by C18 reverse phase HPLC elution profiles and by 2-octanol/water partition coefficients. The analog CH3 O (CH2)11 COOH, for example, partitions into water 20 fold better than myristate. It is believed that these analogs will be incorporated into mammalian acylproteins in vivo and that their incorporation into these proteins will drastically alter protein processing or targeting. […]

yeast NMT = target: T1, yeast NMT (Saccharomyces cerevisiae, UniProt P14743); experiment: in vitro yeast NMT assay, kinetics of fatty acid analog substrates with iodinated peptide GNAAS[125I]YRR; format: biochemical; details: Table 2; relative to myristate control 100%; peptide at its Km
T1 construct: 11,000-fold purified preparation of yeast NMT; from tissue; host or cells: yeast
T1 sequence (P14743 1-455): B1 chain
Source text: (§1) Similar results were obtained using an 11,000-fold purified preparation of yeast NMT [Towler et al., Proc. Natl. Acad. Sci. USA 84, 2708-2712 (1987)].
(§2) Other illustrative examples of the oxy- and thio-substituted fatty acid analog substrate compounds of the invention were synthesized in Examples 6 to 14 and tested in Example 15 as substrates for the yeast NMT.
(§3) For these Examples, each analog synthesized is characterized by ^1 H and 13C NMR as well as mass spectroscopy. The analogs are then characterized kinetically as NMT substrates. Briefly, fatty acid analogs are converted to their CoA esters with Pseudomonas CoA ligase and incubated with the iodinated peptide GNAAS[^125 I]YRR and a source of NMT. […] The radiolabelled peptide is then used at concentrations which will lead to 50% enzyme saturation (i.e., at its Km) for the determination of fatty acid analog kinetic characteristics. Representative analogs with sulfur or oxygen in the backbone of the fatty acid chain serve as good substrates for NMT in vitro and will compete for incorporation of ^3 H labelled myri-state into yeast proteins in vivo. In addition, these analogs differ markedly in hydrophobicity from myri-state as measured both by C18 reverse phase HPLC elution profiles and by 2-octanol/water partition coefficients. The analog CH3 O (CH2)11 COOH, for example, partitions into water 20 fold better than myristate. It is believed that these analogs will be incorporated into mammalian acylproteins in vivo and that their incorporation into these proteins will drastically alter protein processing or targeting. It is further believed that the incorporation of fatty acid analogs of both myristate and palmitate into ester linked and phosphatidyl inositol glycan linked acylproteins will also dramatically alter their properties. Since many viral proteins and oncogenes are acylated, these compounds represent a new class of potential antiviral and antineoplastic agents.

[2] = tested on: Saccharomyces cerevisiae strain BJ405; experiment: toxicity / growth rate of yeast cells; format: cell-based
Procedure: (§4) Saccharomyces cerevisiae strain BJ405 [MATα, trpl, prbl, prcl, pep4-3; Hemmings et al., Proc. Natl. Acad. Sci. USA 78, 435-439 (1981)] (previously referred to as JR153) was grown to mid-log phase (OD660nm=1.0-1.2) in YPD medium (1% yeast extract/2% Bactopeptone/2% Dextrose) at 30° C. in a rotary shaker water bath. Cells were pretreated with Cerulenin at 2 μg/ml for 15 minutes and then incubated for 20-45 minutes with unlabeled myristate, palmitate or fatty acid analog at 100 μM in the presence of either 5 μM [9,10-^3 H(N)]-myristate (22.4 Ci/mmol) or L-[^35 S]methionine (1106 Ci/mmol) at 30 μCi/ml of culture.
Furthermore, 100 μM myristate and 100 μM analog produced a similar modest reduction (10-15%) in total protein synthesis (measured by the incorporation of [^35 S]methionine into TCA precipitable protein) compared to control cells which were not exposed to exogenous fatty acid.

[3] = tested on: known yeast myristoylprotein of Mr 20 kDa; experiment: competition for incorporation of [3H]myristate into a yeast myristoylprotein; format: cell-based, Saccharomyces cerevisiae strain BJ405; details: in words
Procedure: as §4
Cells were cooled on ice 5 minutes, pelleted at 10,000×g, then broken and extracted by the method of Towler et al., Proc. Natl. Acad. Sci. USA 83, 2812-2816 (1986). Total protein synthesis was assayed by trichloroacetic acid (TCA) precipitation. Proteins were separated by SDS-12% polyacrylamide gel electrophoresis, and [^3 H]fatty acid incorporation into cellular acyl-proteins was assayed by autoradiography followed by laser densitometry.

[4] = substrate: COCCCCCCCCCCC(=O)O; experiment: in vitro yeast NMT assay, kinetics of fatty acid analog substrates with iodinated peptide GNAAS[125I]YRR; format: biochemical; details: other: Table 2; peptide at its Km
Source text: as §1, §2, §3

[5] = substrate: C#CCOCCCCCCCCCC(=O)O; experiment: as above; format: biochemical; details: other: Table 2; peptide at its Km
Source text: as §1, §2, §3

[6] = substrate: CCCCCCCCOCCCCC(=O)O; experiment: as above; format: biochemical; details: other: Table 2; peptide at its Km
Source text: as §1, §2, §3

[7] = substrate: COCCCCCCCCCCCC(=O)O; experiment: as above; format: biochemical; details: other: Table 2; peptide at its Km
Source text: as §1, §2, §3

[8] = substrate: CCCSCCCCCCCCCC(=O)O; experiment: as above; format: biochemical; details: other: Table 2; peptide at its Km
Source text: as §1, §2, §3

[9] = substrate: CCCCOCCCCCCCCCCC(=O)O; experiment: as above; format: biochemical; details: other: Table 2; peptide at its Km
Source text: as §1, §2, §3

[10] = substrate: CCOCCCCCCCCCCC(=O)O; experiment: as above; format: biochemical; details: other: Table 2; peptide at its Km
Source text: as §1, §2, §3

[11] = substrate: CCSCCCCCCCCCCC(=O)O; experiment: as above; format: biochemical; details: other: Table 2; peptide at its Km
Source text: as §1, §2, §3

[12] = substrate: CCCCCCCCCCCCCC(=O)O; experiment: as above; format: biochemical; details: other: Table 2; peptide at its Km
Source text: as §1, §2, §3

[13] = substrate: CCCCCCCCSCCCCC(=O)O; experiment: as above; format: biochemical; details: other: Table 2; peptide at its Km
Source text: as §1, §2, §3

[14] = substrate: CCCOCCCCCCCCCC(=O)O; experiment: as above; format: biochemical; details: other: Table 2; peptide at its Km
Source text: as §1, §2, §3

Molecule | partition into water vs myristate [1] | Acyl CoA Vm (yeast NMT) | growth rates of cells vs 100 μM myristate [2] | toxicity to cells ([2]; 100 μM) | entry into yeast / competition with labeled myristate for incorporation into yeast protein [3] | Km [4] | Km [5] | Km [6] | Km [7] | Km [8] | Km [9] | Km [10] | Km [11] | Km [12] | Km [13] | Km [14]
COCCCCCCCCCCCC(=O)O [CH3 O(CH2)11 COOH, 12-(Methoxy)dodecanoic acid] | 20 fold | ~ 110% | No difference in the growth rates | does not appear to be toxic to cells | can successfully enter yeast and compete with labeled myristate for incorporation into a known myristoylprotein |  |  |  |  |  |  |  |  |  |  | 
B1 |  |  |  |  |  | 6.9 µM | 6.5 µM | 1.6 µM | 2 µM | 1.5 µM | 1 µM | 1.8 µM | 1.4 µM | 0.6 µM | 1.5 µM | 6.1 µM
